The values that follow are results of earlier work, collected in publication PMC5133818.

For orientation: Kd means the equilibrium constant for the complex coming apart.

This data set addresses cytochrome c (Homo sapiens) (UniProt P99999). The experiment in a line: SPR. On the technique in general: In SPR one partner is held on a chip, and binding of the other changes the refractive index at the surface.
UniProt P99999, sequence (P99999 2-105): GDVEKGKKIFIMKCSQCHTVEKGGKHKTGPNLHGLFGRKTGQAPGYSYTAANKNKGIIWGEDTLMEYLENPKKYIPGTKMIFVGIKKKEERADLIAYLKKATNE

On to neuroglobin (from UniProt Q9NPG2), for which the Kd was 200 µM.
